Measurements from patent WO2011004847A1 (dated 2011).
“And” between values parts separate entries of the source, which are not always exact repeats. Identical values can stand only once.

T1: human α9 integrin molecule expressed on SW480 cells (human, UniProt Q13797 30-1035)
T1 sequence (looked up): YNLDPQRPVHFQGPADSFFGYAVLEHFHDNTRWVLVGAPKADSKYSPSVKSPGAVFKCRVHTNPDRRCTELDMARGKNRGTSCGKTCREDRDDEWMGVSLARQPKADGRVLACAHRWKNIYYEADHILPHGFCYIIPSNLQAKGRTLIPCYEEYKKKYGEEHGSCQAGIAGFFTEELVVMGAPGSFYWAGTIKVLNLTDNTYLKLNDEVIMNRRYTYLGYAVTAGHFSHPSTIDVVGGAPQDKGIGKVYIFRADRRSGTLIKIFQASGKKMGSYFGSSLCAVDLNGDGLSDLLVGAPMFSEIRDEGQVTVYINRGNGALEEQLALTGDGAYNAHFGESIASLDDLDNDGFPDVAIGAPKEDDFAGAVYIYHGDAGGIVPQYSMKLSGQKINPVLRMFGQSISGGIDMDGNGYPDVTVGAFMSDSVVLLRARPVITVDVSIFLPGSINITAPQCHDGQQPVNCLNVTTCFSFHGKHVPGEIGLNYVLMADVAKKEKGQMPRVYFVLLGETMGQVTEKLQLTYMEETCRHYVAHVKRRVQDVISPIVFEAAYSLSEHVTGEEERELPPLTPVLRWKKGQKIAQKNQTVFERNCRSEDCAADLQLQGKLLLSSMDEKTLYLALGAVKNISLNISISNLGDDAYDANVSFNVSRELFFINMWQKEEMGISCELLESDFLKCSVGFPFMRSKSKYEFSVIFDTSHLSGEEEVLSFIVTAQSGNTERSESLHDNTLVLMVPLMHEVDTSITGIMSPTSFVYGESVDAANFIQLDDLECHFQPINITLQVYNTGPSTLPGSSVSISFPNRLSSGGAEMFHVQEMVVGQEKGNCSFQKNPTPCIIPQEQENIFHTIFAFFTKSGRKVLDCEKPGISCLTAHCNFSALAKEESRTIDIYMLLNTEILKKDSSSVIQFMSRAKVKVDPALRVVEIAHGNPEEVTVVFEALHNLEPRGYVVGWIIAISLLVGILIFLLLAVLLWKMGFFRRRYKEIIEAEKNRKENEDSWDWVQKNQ


Biological target: T1, human α9 integrin molecule expressed on …
Assay: cell-based or functional assay

| cell adhesion inhibitory activity relative to mouse Y9A2 antibody [fold] | concentration giving significant inhibition of migration of SW480/hα9 cells toward nOPN-RAA [µg/mL] | IC50 (μg/mL), cell adhesion inhibition test | Binder |
| --- | --- | --- | --- |
| ~4 | 5 | – | RY9A2v12 (W33FM34L) 012 antibody (antibody, human IgG1, kappa, V domains shown) VH: QVQLVQSGAEVKKPGSSVKVSCKASGYTLTTYFLHWVRQAPGQGLEWMGYINPSSGYTEYNQKFQGRVTITADKSTSTAYMELSSLRSEDTAVYYCAIYGDYGDFYFDYWGQGTTVTVSS VL: DIQMTQSPSSLSASVGDRVTITCRASQSVNTDVAWYQQKPGKAPKLLIYFASNHYTGVPSRFSGSGSGTDFTFTISSLQPEDIATYYCRQDYSSPFTFGGGTKVEIKR |
| ~4 | 5 | – | RY9A2v12 (W33YM34L) 012 antibody (antibody, human IgG1, kappa, V domains shown) VH: QVQLVQSGAEVKKPGSSVKVSCKASGYTLTTYYLHWVRQAPGQGLEWMGYINPSSGYTEYNQKFQGRVTITADKSTSTAYMELSSLRSEDTAVYYCAIYGDYGDFYFDYWGQGTTVTVSS VL: DIQMTQSPSSLSASVGDRVTITCRASQSVNTDVAWYQQKPGKAPKLLIYFASNHYTGVPSRFSGSGSGTDFTFTISSLQPEDIATYYCRQDYSSPFTFGGGTKVEIKR |
| – | 50 | 0.07 µg/mL and 0.039 µg/mL | mouse anti-human α9 integrin antibody Y9A2 (antibody, V domains shown) VH: QVQLQQSGAELANPGASVKMSCKASGYTLTTYWMHWVKQRPGQGLEWIGYINPSSGYTEYNQKFKDKATLTADKSSSTAYMQLTSLTSEDSAVYYCAIYGDYGDFYFDYWGQGTTLTVSS VL: SIVMTQTPKFLLVSAGDRVTMTCKASQSVNTDVAWFQQKPGQSPKLLIYFASNHYTGVPDRFTGSGYGTDFTFTISTVQAEDLAIYFCRQDYSSPFTFGGGTKLEIKR |
